The chains are these.
B1: BOIIB2 antibody (antibody, human IgG4, kappa, V domains shown)
VH: QVQLQESGPGLVKPSETLSLTCTVSGDSISDYYWSWIRQPPGKGLEWIGYFFYSGGSNYNPSLKSRVTMSVDTSKNQFSLKLGSVTAADTAVYYCARSQLRYYLDVWGQGTTVTVSS
VL: EIVLTQSPGTLSLSPGERATLSCRASQSVDSNYLAWYQQKPGQAPRVVIYGASNRATGIPDRFSGSGSGTEFTLTISRLDPEDFAVYYCQQYGSFFGQGTRLEIKR
notes: Human monoclonal IgG4 from a haemophilia A patient; also called anti-A2 antibody; FVIII anti-domain A2 BOIIB2 human antibody

The target of test [1] is T1, Factor VIII fragment 379-546Mut (R484A, Y487A, R489A, P492A), tagged (UniProt P00451 398-565, labeled in vitro with L-(35S) methionine).
T1 construct: Produced in rabbit reticulocyte lysate
T1 sequence: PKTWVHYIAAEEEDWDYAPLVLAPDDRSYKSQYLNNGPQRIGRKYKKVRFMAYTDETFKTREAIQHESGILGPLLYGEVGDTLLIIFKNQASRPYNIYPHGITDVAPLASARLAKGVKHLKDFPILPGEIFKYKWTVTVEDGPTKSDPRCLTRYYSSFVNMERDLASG
As to the kind of experiment: immunoprecipitation of 35S-labelled fragment by BOIIB2 on Protein A Sepharose. The method, then:
The immunoprecipitation of the transcribed genes is carried out as follows. Sample dilutions containing the specific antibodies are mixed with 40 up of Protein A Sepharose (Pharmacia) in 500 up of a suitable buffer, and the mixture is gently stirred for 1 hour at 4° C. The non-fixed antibodies are eliminated by means of a succession of centrifugations and washings. The complex antibody-Protein A Sepharose is resuspended in 300 up of buffer supplemented with 3 up of polypeptides of Factor VIII labeled in vitro with methionin L-(³⁵S), in order to incubate at 4° C. for 2 hours. The complexes antigens/antibodies are eluted from the beads by boiling for 3 minutes in 30 up of denaturating buffer and the radioactivity is counted. A second aliquot is analyzed by SDS-PAGE and visualized by autoradiography.
The fragments were immunoprecipitated by the human BOIIB2 antibody bound to Protein-A Sepharose. After washing, the complex was eluted and the radioactivity measured (in CPM) by scintillation and charged on SDS-PAGE, followed by an autoradiography. […] The anti-c-myc 9E10 antibody and the human plasma were used as positive and negative controls, respectively.

The test “BOIIB2 antibody” has as its target B1. As to the kind of experiment: SPR (BIAcore), BOIIB2 immobilized on CM5, 30D1 as analyte. The protocol: The kinetics of fixation of the 30D1 anti-idiotypic antibody to the BOIIB2 inhibitor antibody was assessed by the method <<Surface plasmon resonance Biacore>> using the Pharmacia Biosensor BIAcore (Pharmacia Biosensor AB, Uppsala, Sweden). The BOIIB2 antibodies were immobilized on an activated surface of a probe CM5. The 30D1 anti-idiotypic antibodies were infused in several concentrations of immobilized BOIIB2 on the surface of the probe.
In general terms: In SPR one partner is held on a chip, and binding of the other changes the refractive index at the surface.

The Kd is a measure of binding affinity in units of concentration. One may read the koff as a measure of how fast the partners let go of each other. Read a low koff as a long-lived complex. The kon is the rate constant with which the complex forms. A low value points to slower complex formation.

B1: the binding result in test [1] was “no binding”.

B2: 30D1 monoclonal anti-idiotypic antibody (antibody, mouse IgG1, V domains shown)
VH: EVQLQQSGPELVKPGASMKISCKASGYSFTDYTMNWVKQSHGKNLEWIGLINPYNVISSYNQKFKGKATLTVDKSSSTAYMELLSLTSEDSAVYYCARKGYGSSMFAYWGQGTLVTVSA
VL: DIVMTQSHKFMSTSVGGRVSITCKASQDVTTAVAWYQQKPGQSPKLLIYSASYRYTGVPDRFTGSGSGTDFTFTFSSVQAEDLAVYYCQQHYSIPWTFGGGTKLEIKR
notes: Tested as hybridoma supernatant and Protein G purified (SPR); also called 30D1 anti-Id; 30DA1
On to B2, for which, in the test with BOIIB2 antibody, the Kd is at most 0.17 nM, the off-rate (koff) is at most 1e-05 s⁻¹ and the kon is 60000 M⁻¹ s⁻¹.

(Values after patent publication US20070065425A1 (LABORATOIRE FRANCAIS DU FRACTIONNEMENT ET DES …, published 2007).)
